B1: Condensin complex subunit 2 (Schizosaccharomyces pombe (strain ATCC 38366 / 972)), Q9Y7R3 (parent)
chain: MKRASLGGHAPVSLPSLNDDALEKKRAKENSRKQRELRRSSALHSITPRRESLNNSSPFNSSHQVPVLSNFEEWIKLATDNKINSTNTWNFALIDYFHDMSLLRDGEDINFQKASCTLDGCVKIYTSRIDSVATETGKLLSGLANDSKVLQQTEEGEDAENDDEDLQKKKERKRAQRSVKTLVKDFESIRAKKFELECSFDPLFKKMCADFDEDGAKGLLMNHLCVDQHGRIVFDSSDTVIKDLENKDVEAESQEAVVAAPIESHDTEMTNVHDNISRETLNGIYKCYFTDIDQLTICPSLQGFEFDSKGNLDVSLLKSLSDEVNMITTTSLVDNTMEKTDADAASLSSDSDGEEGHIVHALEEMAYDEENPYVDVVPKAMDESENPDFGVDTEVNMADGSTMNENYSIISTAAANGVYEYFDKSMKKNWAGPEHWRIQALRKNINNASTVFNSSNTAESSDNVSRSLSSTERKKRRELDNAIDFLQEVDVEALFTPATSSLKLPKSHWKRHNRCLLPDDYQYDSKRLLQLFLKPKMSVLPNADGEGQLQLNKALDDENDLDGIQPHGFDSDGSDNVDEGIPPYGFGDSDSPKQTPLLTPPSSSGFGDNLLLTARLAKPDMLNYAKRAKKVDVRVLKEKLWKCLDLENTIKENSINSHIEGSEMESEETNMPVKSFFSTVNQLEETYEKKELKDISTSFAFICVLHLANEHNLELTSNEDFSDVFIRPGPNLTTLEALENDV

This is an account of results in IntAct's records for PubMed 21633354.

The variants in one test derive from B1. To be noted: with h2a2_schpo hta2, P04910.
For S5A;S41A;S52A, the “effect of a mutation on the interaction” value is reported as “decreasing interaction”.

The variants in another test derive from B1. To be noted: with h2az_schpo pht1, P48003.
Sequence of h2az_schpo pht1, P48003 (P48003 whole entry): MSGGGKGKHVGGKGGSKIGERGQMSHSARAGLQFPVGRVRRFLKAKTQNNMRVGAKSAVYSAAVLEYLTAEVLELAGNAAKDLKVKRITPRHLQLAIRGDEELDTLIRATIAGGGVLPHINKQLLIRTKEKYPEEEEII
Consider S5A;S41A;S52A, for which the “effect of a mutation on the interaction” value is “decreasing interaction”.
